This is an account of results in article PMC9204724 (iScience, 2022).

Like-named read-outs stand apart in the source and are kept apart here.

For test [1], the target named is α-actin–Tpm1.7 cofilament (chicken | human) (UniProt P68139). The test can be described thus: stopped-flow kinetics.
Test [2] deals with α-actin–Tpm3.1 cofilament (chicken | human) (UniProt P68139). The test can be described thus: stopped-flow kinetics.
The target in test [3] is chicken skeletal muscle α-actin, filamentous (chicken) (UniProt P68139). The test can be described thus: stopped-flow kinetics.
Test [4] addresses T1, acto-Myo1C^0-ΔTH1 (no Tpm) (Homo sapiens, UniProt O00159). The format is binding.
Test [5] has as its target T1, acto-Myo1C^0-ΔTH1 (no Tpm). The test can be described thus: stopped-flow, pyrene-actin fluorescence, K0.[…] of fast phase vs [ATP]. The class given is binding.
Test [6] addresses β-actin–AcTpm3.1 cofilament (human) (UniProt P60709).
In test [7] the target is β-actin–AcTpm4.2 cofilament (human) (UniProt P60709).
Test [8] addresses β-actin–AcTpm1.6 cofilament (human) (UniProt P60709).
The target in test [9] is β-actin–Tpm4.2 cofilament (human) (UniProt P60709).
The target in test [10] is β-actin–Tpm2.1 cofilament (human) (UniProt P60709).
The target of test [11] is β-actin–AcTpm2.1 cofilament (human) (UniProt P60709).
Test [12] deals with β-actin–Tpm1.6 cofilament (human) (UniProt P60709).
The target of test [13] is β-actin–Tpm3.1 cofilament (human) (UniProt P60709).
The target in test [14] is human β-actin, filamentous (human) (UniProt P60709).

As a reminder, the Kd is the concentration at which binding is half-saturated. A higher Kd goes with lower affinity. As usually defined, the kon is a measure of how fast the partners come together.

T1 sequence (O00159 36-891, stated change not applied): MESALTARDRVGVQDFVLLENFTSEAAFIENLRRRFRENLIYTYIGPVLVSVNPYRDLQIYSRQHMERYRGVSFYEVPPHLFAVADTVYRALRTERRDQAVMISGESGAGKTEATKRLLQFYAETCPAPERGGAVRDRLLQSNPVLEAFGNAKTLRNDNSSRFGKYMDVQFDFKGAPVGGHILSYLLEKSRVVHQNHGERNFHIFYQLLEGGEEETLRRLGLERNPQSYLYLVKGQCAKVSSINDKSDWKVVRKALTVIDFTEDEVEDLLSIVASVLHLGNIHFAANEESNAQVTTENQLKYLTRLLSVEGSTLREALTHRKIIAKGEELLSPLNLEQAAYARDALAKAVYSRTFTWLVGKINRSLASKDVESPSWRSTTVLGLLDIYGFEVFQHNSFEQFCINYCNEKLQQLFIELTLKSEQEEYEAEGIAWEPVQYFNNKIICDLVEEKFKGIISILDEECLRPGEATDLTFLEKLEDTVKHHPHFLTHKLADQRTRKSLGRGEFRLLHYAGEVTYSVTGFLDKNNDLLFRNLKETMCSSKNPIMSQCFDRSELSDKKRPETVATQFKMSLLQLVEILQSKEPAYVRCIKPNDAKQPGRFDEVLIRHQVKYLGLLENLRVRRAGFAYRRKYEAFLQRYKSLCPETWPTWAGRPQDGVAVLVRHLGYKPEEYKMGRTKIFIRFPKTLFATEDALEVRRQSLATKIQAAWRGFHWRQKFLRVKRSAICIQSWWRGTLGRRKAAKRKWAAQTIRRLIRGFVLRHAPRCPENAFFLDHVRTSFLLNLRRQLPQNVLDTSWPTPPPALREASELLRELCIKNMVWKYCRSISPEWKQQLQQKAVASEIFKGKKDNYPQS

Consider “human Myo1C^0-ΔTH1, tail truncated myosin-1C isoform C^0, co-produced with calmodulin (from UniProt P0DP23 1-149) (complex)”, for which the Kd in test [1] came out at 19.6 nM; in test [2], 18.4 nM; in test [3], 13.7 nM. Besides, the kon in test [1] came to 1.33e+06 M⁻¹ s⁻¹; in test [2], 1.36e+06 M⁻¹ s⁻¹; in test [3] it was 1.46e+06 M⁻¹ s⁻¹.

Molecule `Nc1ncnc2c1ncn2[C@@H]1O[C@H](COP(=O)(O)OP(=O)(O)O)[C@@H](O)[C@H]1O` [ADP] had a Kd in test [4] of 460 ± 80 nM.

For `Nc1ncnc2c1ncn2[C@@H]1O[C@H](COP(=O)(O)OP(=O)(O)OP(=O)(O)O)[C@@H](O)[C@H]1O` [ATP], binding in test [5] was characterised by a dissociation constant (Kd) of 154000 ± 31000 nM.

For the molecule “human non-muscle myosin-2A heavy meromyosin (NM-2A-HMM) with essential and regulatory light chains, phosphorylated (from UniProt P35579-1;P60660-1;O14950) (complex)”, the Kapp of the actin-activated steady-state ATPase (Michaelis–Menten fit, 30 °C) in test [6] came out at 26.6 µM; in test [7] it was 26.1 µM; in [8], 17.7 µM; in test [9], 26.2 µM; in test [10], 37.8 µM; in [11] it was 40.9 µM. The Kapp of the actin-activated steady-state ATPase (Michaelis–Menten fit, 30 °C) in test [12] is 27.8 µM; in [13] it was 19.6 µM. Also, the kcat/Kapp of the actin-activated steady-state ATPase (30 °C) in test [7] is 23400 M⁻¹ s⁻¹; in test [8], 17400 M⁻¹ s⁻¹; in test [9], 11200 M⁻¹ s⁻¹; in [10], 10200 M⁻¹ s⁻¹; in test [12], 12400 M⁻¹ s⁻¹; in test [13] it was 29100 M⁻¹ s⁻¹.

For the molecule “human tropomyosin Tpm1.8, non-acetylated (natural protein)”, the Tdiss in test [14] stood at 41.6 °C.
